Source: the supplement of paper PMC7125110
Fewer inactive variants are shown than the library holds.

B1: glmS ribozyme (parent)
chain: AUAAAAGCGCCAGAACUACAGAAAUGUAGUUGACGAGGAGGAGGUUUAUCGAAUUUUCGGCGGAUGCCUCCAAA

What was measured:
Conditions in all cases: with glucosamine-6-phosphate
glucosamine-6-phosphate [1] = variants of: B1; test: self-cleavage kobs at 40 uM GlcN6P; higher = faster cleavage; RNA array
How it was run: (§1)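 Barcoded ribozyme variants, transcribed in situ by E. coli RNA polymerase on sequenced MiSeq chips, were followed via a hybridised Cy3 probe at 37 °C. Glucosamine-6-phosphate ranged from 40 μM to 10 mM in HEPES/KCl/Mg(OAc)2 buffer. kobs came from decay fits to per-tile medians, and kcat and KM from weighted Michaelis–Menten fits.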

glucosamine-6-phosphate [2] = variants of: B1; test: self-cleavage kobs at 640 uM GlcN6P; higher = faster cleavage; RNA array
How it was run: as §1

glucosamine-6-phosphate [3] = variants of: B1; test: self-cleavage kobs at 2500 uM GlcN6P; higher = faster cleavage; RNA array
How it was run: as §1

glucosamine-6-phosphate [4] = variants of: B1; test: self-cleavage kobs at 10000 uM GlcN6P; higher = faster cleavage; RNA array
How it was run: as §1

glucosamine-6-phosphate [5] = variants of: B1; test: self-cleavage kobs at 160 uM GlcN6P; higher = faster cleavage; RNA array
How it was run: as §1

AUAAAACCGCCAGAACUACAGAAAUGUAGUAGACGAGGAGGAGGUUUAUCGAAUUUUCGGCGGAUGCCUCCAAA [G7C U31A]
< 1e-05 s⁻¹: self-cleavage kobs at 40 uM GlcN6P (glucosamine-6-phosphate [1]) | self-cleavage kobs at 640 uM GlcN6P (glucosamine-6-phosphate [2]) | self-cleavage kobs at 2500 uM GlcN6P (glucosamine-6-phosphate [3]) | self-cleavage kobs at 10000 uM GlcN6P (glucosamine-6-phosphate [4])

AUAAAAACGCCAGAACUACAGAAAUGUAGUUGACGAGGAGGAGGUGUAUCGAAUUUUCGGCGGAUGCCUCCAAA [G7A U46G]
< 1e-05 s⁻¹: self-cleavage kobs at 40 uM GlcN6P (glucosamine-6-phosphate [1]) | self-cleavage kobs at 160 uM GlcN6P (glucosamine-6-phosphate [5]) | self-cleavage kobs at 640 uM GlcN6P (glucosamine-6-phosphate [2])

AUAAAAACGCCAGAACUACAGAAAUGUAGUUGACGAGGAGGAGGUUUAUCGAAUCUUCGGCGGAUGCCUCCAAA [G7A U55C]
< 1e-05 s⁻¹: self-cleavage kobs at 40 uM GlcN6P (glucosamine-6-phosphate [1]) | self-cleavage kobs at 160 uM GlcN6P (glucosamine-6-phosphate [5]) | self-cleavage kobs at 640 uM GlcN6P (glucosamine-6-phosphate [2])

AUAAAACCGCCAGAACUACAGAAAUGUAGUUGACGAGGAGUAGGUUUAUCGAAUUUUCGGCGGAUGCCUCCAAA [G7C G41U]
< 1e-05 s⁻¹: self-cleavage kobs at 40 uM GlcN6P (glucosamine-6-phosphate [1]) | self-cleavage kobs at 160 uM GlcN6P (glucosamine-6-phosphate [5]) | self-cleavage kobs at 2500 uM GlcN6P (glucosamine-6-phosphate [3]) | self-cleavage kobs at 10000 uM GlcN6P (glucosamine-6-phosphate [4])

AUAAAACCGCCAGAACUACAGAAAUGUAGUUGGCGAGGAGGAGGUUUAUCGAUUUUUCGGCGGGUGCCUCCAAA [G7C A33G A53U A64G]
< 1e-05 s⁻¹: self-cleavage kobs at 40 uM GlcN6P (glucosamine-6-phosphate [1]) | self-cleavage kobs at 640 uM GlcN6P (glucosamine-6-phosphate [2])

AUAAAACCGCCAGAACUACAGAAAUGUAGUUGACGAGGAGGAGCUUUAUCGAAUUUUCGGCGGUUGCCUCCAAA [G7C G44C A64U]
< 1e-05 s⁻¹: self-cleavage kobs at 40 uM GlcN6P (glucosamine-6-phosphate [1]) | self-cleavage kobs at 10000 uM GlcN6P (glucosamine-6-phosphate [4])

AUAAAACCGCUAGAACUACAGAAAUGUAAUUGACGAGGAAGUGGUUUAUCGAAUUUUCGGCUGAUGCCUCCAAA [G7C C11U G29A G40A A42U G62U]
< 1e-05 s⁻¹: self-cleavage kobs at 40 uM GlcN6P (glucosamine-6-phosphate [1])

AUAAAACCGCCAGAACUACAGAAAUGUAGUUGACGAGGAAGAGGUUUAUCGAAUUUUCGGCGGAUGCCUCCAAA [G7C G40A]
< 1e-05 s⁻¹: self-cleavage kobs at 40 uM GlcN6P (glucosamine-6-phosphate [1]) | self-cleavage kobs at 160 uM GlcN6P (glucosamine-6-phosphate [5]) | self-cleavage kobs at 640 uM GlcN6P (glucosamine-6-phosphate [2]) | self-cleavage kobs at 2500 uM GlcN6P (glucosamine-6-phosphate [3]) | self-cleavage kobs at 10000 uM GlcN6P (glucosamine-6-phosphate [4])

AUAAAACCGCCAGAACUACAGAAAUGUAGUUGACGAGGAGGAGGUUUAUCGAAUUUUCGGCGGAUGCCUCCAAA [G7C]
< 1e-05 s⁻¹: self-cleavage kobs at 40 uM GlcN6P (glucosamine-6-phosphate [1]) | self-cleavage kobs at 160 uM GlcN6P (glucosamine-6-phosphate [5]) | self-cleavage kobs at 640 uM GlcN6P (glucosamine-6-phosphate [2]) | self-cleavage kobs at 2500 uM GlcN6P (glucosamine-6-phosphate [3]) | self-cleavage kobs at 10000 uM GlcN6P (glucosamine-6-phosphate [4])

AUAAAACCGCCAGAACUACAGAAAUGUAGUUGACGAGGAGGAGGUUUAUCGAAUUUUCGGCGGAUGCCUACAAA [G7C C70A]
< 1e-05 s⁻¹: self-cleavage kobs at 40 uM GlcN6P (glucosamine-6-phosphate [1]) | self-cleavage kobs at 160 uM GlcN6P (glucosamine-6-phosphate [5]) | self-cleavage kobs at 640 uM GlcN6P (glucosamine-6-phosphate [2]) | self-cleavage kobs at 2500 uM GlcN6P (glucosamine-6-phosphate [3]) | self-cleavage kobs at 10000 uM GlcN6P (glucosamine-6-phosphate [4])

AUAAAACCGCCAGAACUACAGAAAUGUAGUUGACGAGGAGGAGGUUUUUCGAAUUUUCGGCGGAUGCCUCCAAA [G7C A48U]
< 1e-05 s⁻¹: self-cleavage kobs at 40 uM GlcN6P (glucosamine-6-phosphate [1]) | self-cleavage kobs at 160 uM GlcN6P (glucosamine-6-phosphate [5]) | self-cleavage kobs at 2500 uM GlcN6P (glucosamine-6-phosphate [3]) | self-cleavage kobs at 10000 uM GlcN6P (glucosamine-6-phosphate [4])

AUAAAACCGCUAGAACUACAGAAAUGUAGUUGACGAGGAGGAGGUUUAUCGAAUUUUCGGAGGAUGCCUGCAAA [G7C C11U C61A C70G]
< 1e-05 s⁻¹: self-cleavage kobs at 40 uM GlcN6P (glucosamine-6-phosphate [1]) | self-cleavage kobs at 2500 uM GlcN6P (glucosamine-6-phosphate [3])

AUAAAACCGCCAGAGCUACAGAAAUGUAGUUGACGAGGAGGAGGUUUAUCGAAUUUUCGGCGGAUGCCUCCAAA [G7C A15G]
< 1e-05 s⁻¹: self-cleavage kobs at 40 uM GlcN6P (glucosamine-6-phosphate [1]) | self-cleavage kobs at 10000 uM GlcN6P (glucosamine-6-phosphate [4])

AUAAAACCGCCAGAACUACAGAAAUGUACUUGACUAGGAGGAGGUUUAUCGAAUUUUCGGCGGAUGCCUCCAAA [G7C G29C G35U]
< 1e-05 s⁻¹: self-cleavage kobs at 40 uM GlcN6P (glucosamine-6-phosphate [1]) | self-cleavage kobs at 640 uM GlcN6P (glucosamine-6-phosphate [2]) | self-cleavage kobs at 10000 uM GlcN6P (glucosamine-6-phosphate [4])

AUAAAACCGCCAGAACUACAGAAAUGUAGUUGACGAGGAGGAGGUUUAUCGAAUUUUCGGCGCAUGCGACCAAA [G7C G63C C68G U69A]
< 1e-05 s⁻¹: self-cleavage kobs at 40 uM GlcN6P (glucosamine-6-phosphate [1]) | self-cleavage kobs at 10000 uM GlcN6P (glucosamine-6-phosphate [4])

AUAAAACCGCCAGAACUACAGAAAUGUAGGUGACUAUGAGGAGGUUUAUCGAAUUUCCGGCGGAUGCCUCGAAA [G7C U30G G35U G37U U57C C71G]
< 1e-05 s⁻¹: self-cleavage kobs at 40 uM GlcN6P (glucosamine-6-phosphate [1]) | self-cleavage kobs at 10000 uM GlcN6P (glucosamine-6-phosphate [4])

AUAAAACCGCCAGAGCUACAGAAAUGUAGUUGACGUGGAGGAGGUUUAUCGAAUUUUCGGCGGAUGCCUCCAAA [G7C A15G A36U]
< 1e-05 s⁻¹: self-cleavage kobs at 40 uM GlcN6P (glucosamine-6-phosphate [1]) | self-cleavage kobs at 640 uM GlcN6P (glucosamine-6-phosphate [2]) | self-cleavage kobs at 10000 uM GlcN6P (glucosamine-6-phosphate [4])

AUAAAACCGCCAGAACUACAGAAAUGUAGUUGACGAGGAGGAGGUUUAUCAAAUUUUCGGCGGAUGCCUCCAAA [G7C G51A]
< 1e-05 s⁻¹: self-cleavage kobs at 40 uM GlcN6P (glucosamine-6-phosphate [1]) | self-cleavage kobs at 160 uM GlcN6P (glucosamine-6-phosphate [5]) | self-cleavage kobs at 640 uM GlcN6P (glucosamine-6-phosphate [2]) | self-cleavage kobs at 10000 uM GlcN6P (glucosamine-6-phosphate [4])

AUAAAACCGCCAGAACUACAGAAAUGUAGUUUAACAGGAGGAGGUUUAUCGAAUUUUCGGCGGAUGCCUCCAAA [G7C G32U C34A G35C]
< 1e-05 s⁻¹: self-cleavage kobs at 40 uM GlcN6P (glucosamine-6-phosphate [1])

AUAAAAACGCCAGAACUACAGAAAUGUAGGUGACGAGGAGCAGGUUUAUCGAAUUUUGGGCGGAUACCUCCAAA [G7A U30G G41C C58G G66A]
< 1e-05 s⁻¹: self-cleavage kobs at 40 uM GlcN6P (glucosamine-6-phosphate [1])

AUAAAACCGCCAGAACUACAGAAAUGUAGUUGACGAGGAGGAGGUUUAUCGUAUUUUCGGCGGAUGCCUCCAAA [G7C A52U]
< 1e-05 s⁻¹: self-cleavage kobs at 40 uM GlcN6P (glucosamine-6-phosphate [1]) | self-cleavage kobs at 160 uM GlcN6P (glucosamine-6-phosphate [5]) | self-cleavage kobs at 640 uM GlcN6P (glucosamine-6-phosphate [2]) | self-cleavage kobs at 2500 uM GlcN6P (glucosamine-6-phosphate [3]) | self-cleavage kobs at 10000 uM GlcN6P (glucosamine-6-phosphate [4])

AUAAAACCGCCAGAACUACAGAAAUGUAGUUGACGAGGAGGAGGUUUUUCGAAUUUUCGGCGGAUGCCUGCAAA [G7C A48U C70G]
< 1e-05 s⁻¹: self-cleavage kobs at 40 uM GlcN6P (glucosamine-6-phosphate [1]) | self-cleavage kobs at 10000 uM GlcN6P (glucosamine-6-phosphate [4])

AUAAAACCGCCAGAACUACAGAAAUGUAGUUGACGAGGAGGAGGUUUAUUGAAUUUUCGGCGGAUGCCUCCAAA [G7C C50U]
< 1e-05 s⁻¹: self-cleavage kobs at 40 uM GlcN6P (glucosamine-6-phosphate [1]) | self-cleavage kobs at 160 uM GlcN6P (glucosamine-6-phosphate [5]) | self-cleavage kobs at 640 uM GlcN6P (glucosamine-6-phosphate [2]) | self-cleavage kobs at 2500 uM GlcN6P (glucosamine-6-phosphate [3])

AUAAAAACGCCAGAACUACAGAAAUGUAGUUGACGAGGAGGAGGUUUAUCGAAUUAUCGGCGGAUGCCUCCAAA [G7A U56A]
< 1e-05 s⁻¹: self-cleavage kobs at 40 uM GlcN6P (glucosamine-6-phosphate [1]) | self-cleavage kobs at 160 uM GlcN6P (glucosamine-6-phosphate [5]) | self-cleavage kobs at 640 uM GlcN6P (glucosamine-6-phosphate [2])

AUAAAACCGCCAGAACUACAGAAAUGUAGUUGACGAGGAGGAGGUUUAUCGAAUUUUCGGCGGAUUCCUCCAAA [G7C G66U]
< 1e-05 s⁻¹: self-cleavage kobs at 40 uM GlcN6P (glucosamine-6-phosphate [1]) | self-cleavage kobs at 160 uM GlcN6P (glucosamine-6-phosphate [5]) | self-cleavage kobs at 640 uM GlcN6P (glucosamine-6-phosphate [2]) | self-cleavage kobs at 2500 uM GlcN6P (glucosamine-6-phosphate [3])
